This note sets out measurements from US20150266975, “RNA-SPECIFIC BINDING ANTIBODY” (Korea Advanced Institute of Science and Technology, published 2015).

The target of this data set is T1, MabBC200-A3 (Homo sapiens).
T1 chain 1: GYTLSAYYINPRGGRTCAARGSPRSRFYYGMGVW
T1 chain 2: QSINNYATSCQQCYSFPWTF
Briefly: filter; room temperature. Particulars: hairpin with internal loops.

B1: RNA (51-120) (ssRNA)
RNA: GGGAGGCGGGAGGAUAGCUUGAGCCCAGGAGUUCGAGACCUGCCUGGGCAAUAUAGCGAGACCCCGUUCUCCC
For B1, the Kd (commonly a measure of binding affinity in units of concentration) was around 10 nM.
